The text below walks through data of patent US20070254831A1 (published 2007).

Usually Kd stands for a measure of binding affinity in units of concentration. Read a high Kd as a looser complex. Broadly, the IC50 is the concentration at which inhibition is half-maximal. Low readings indicate higher potency, high ones lower potency.

Like-named read-outs stand apart in the source and are kept apart here. Bridge positions count the residues as written; N and C are the ends. Square brackets hold non-standard residues; d marks the D form. Ends that are not written are not given here. NMeA = CN[C@@H](C)C(=O)O

For test [1], the target named is T1, soluble human FcRn (human, UniProt P55899 24-297; P61769 21-119, biotinylated (Sulfo-NHS-LC-Biotin) in the ELISA; amine-coupled to CM5 chip in SPR).
T1 construct: also called shFcRn; biotinylated shFcRn
Kind of test: SPR, pH 6. On the technique in general: Surface plasmon resonance follows binding to a sensor surface in real time, without labels.
Experimental: (§1) The following steps were performed to cross-link soluble human or cynomolgus FcRn to the dextran surface of a CM5 sensor chip (Biacore AB, Uppsala, Sweden) by an amine coupling reaction involving 1-ethyl-(3-dimethylaminopropyl)-carbodiimide hydrochloride (EDC) (Biacore AB, Uppsala, Sweden) and N-hydroxysuccinimide (NHS) (Biacore AB, Uppsala, Sweden) as recommended by Biacore (BIAapplications Handbook, version AB, section 4.2, Biacore AB, Uppsala, Sweden). […] Residual sites on the FcRn flow cell were blocked with 1 M ethanolamine hydrochloride pH 8.5 (Biacore AB, Uppsala, Sweden). A control flow cell was blocked with ethanolamine for reference subtraction. For analysis of the monomeric peptides, FcRn was coated to a final density of 4000-5000 response units (RU). For analysis of the peptide dimers, FcRn was coated to a density of 2000-2500 RU. All SPR measurements were performed using a BIACORE 3000 Instrument (Biacore AB Uppsala, Sweden). For measurements done at either pH 6 or pH 7.4, experiments were performed in 50 mM phosphate, 100 mM sodium chloride, 0.01% surfactant P20 (Biacore AB, Uppsala, Sweden).
(§2) Ten, 2-fold dilutions of the peptide were injected over the FcRn-CM5 chip at a rate of 20 μl/min for 2 min. The peptide was dissociated from the chip for 2.5 minutes with buffer. Any remaining peptide was removed from the chip with a 30 second injection of HBS-P buffer (Biacore AB, Uppsala, Sweden) at a rate of 30 μl/min. Sensorgrams were generated and analyzed using BiaEval software version 3.1 (Biacore AB, Uppsala, Sweden). The equilibrium RU observed for each injection was plotted against concentration. The equilibrium KD values were derived by analysis of the plots using the steady state affinity model included in the BiaEval software.

Test [2] has as its target T1, soluble human FcRn. As to the kind of experiment: ELISA, competitor human IgG.
Experimental: (§3) The wells were coated with 100 μl/well of 1 μg/ml biotinylated-shFcRn in Buffer A. The plate was sealed and incubated at 37° C. for 2 hours. Afterwards, the plate washed with 200 μl/well of Buffer B (Buffer B: 100 mM MES pH 6, 150 mM NaCl, 0.5% BSA IgG-free (Jackson ImmunoResearch, West Grove, Pa.), 0.05% Tween-20). […] To allow for mixing, the plate was rocked for 2 minutes, sealed and incubated at 37° C. for 2 hours. […] The plate was covered, incubated for 30 minutes at room temperature and washed 4 times with 200 μl/well of ice-cold buffer B. SureBlue TMB substrate solution (100 μl/well, KPL, Gaithersburg, Md.) was added and the plate was allowed to incubate at room temperature until color developed, which took 5 to 10 minutes. Once color developed, 100 μl/well of TMB stop solution (KPL, Gaithersburg, Md.) was added and the absorbance was measured at 450 nm. The data was plotted as absorbance vs. peptide concentration to derive the inhibitory concentration 50% (IC₅₀) values.
Test [3] concerns the target T1, soluble human FcRn. Kind of test: ELISA, competitor human IgG. This is another data set of the same source. Background: An ELISA detects its analyte on a solid surface through an enzyme-linked reagent.
Experimental: as §3
The target in test [4] is T1, soluble human FcRn. As to the kind of experiment: SPR, pH 7.4.
Experimental: as §1, §2
In test [5] the target is T1, soluble human FcRn. Kind of test: SPR, pH 6. This is another data set of the same source.
Test [6] has as its target T1, soluble human FcRn. Kind of test: SPR, pH 6. This is another data set of the same source.
Experimental: as §1, §2
Test [7] has as its target T1, soluble human FcRn. Kind of test: ELISA, competitor human IgG. This is another data set of the same source.
Experimental: as §3
The target of test [8] is T1, soluble human FcRn. As to the kind of experiment: ELISA, competitor human IgG. This is another data set of the same source.
Experimental: as §3
Test [9] addresses T1, soluble human FcRn. As to the kind of experiment: SPR, pH 6. This is another data set of the same source.
Test [10] concerns the target T1, soluble human FcRn. As to the kind of experiment: SPR, pH 6. This is another data set of the same source.
Experimental: as §1, §2
Test [11] addresses T1, soluble human FcRn. Kind of test: SPR, pH 7.4. The source holds these as a separate data set.
Experimental: as §1, §2
Test [12] addresses T1, soluble human FcRn. As to the kind of experiment: ELISA, competitor human IgG. The source holds these as a separate data set.
Experimental: as §3
The target of test [13] is T1, soluble human FcRn. As to the kind of experiment: ELISA, competitor human IgG. The source holds these as a separate data set.
Experimental: as §3

T1 sequence (P55899 24-297 limits assumed, chain 1 of 2): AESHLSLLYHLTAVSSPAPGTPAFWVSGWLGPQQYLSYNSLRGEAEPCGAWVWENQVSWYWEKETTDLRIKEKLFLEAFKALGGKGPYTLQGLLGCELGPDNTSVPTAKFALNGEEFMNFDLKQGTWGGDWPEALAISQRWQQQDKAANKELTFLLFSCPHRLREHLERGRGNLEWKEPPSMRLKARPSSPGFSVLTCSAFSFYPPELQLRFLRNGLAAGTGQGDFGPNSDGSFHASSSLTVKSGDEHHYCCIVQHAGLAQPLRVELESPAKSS
T1 sequence (P61769 21-119 limits assumed, chain 2 of 2): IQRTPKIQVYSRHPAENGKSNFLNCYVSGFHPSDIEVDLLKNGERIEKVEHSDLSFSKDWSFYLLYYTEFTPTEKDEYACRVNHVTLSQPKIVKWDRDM

QRFXTGHXGGLYPCNGP (Pen at 4; 3-MePhe at 8; disulfide; C-terminal amide) [Peptide No. 89]: binding in test [1] was characterised by a dissociation constant (Kd) of 0.67 µM. In [2], this molecule had an IC50 of 4.1 µM. The like results for QRFXTGHXGGLYPCNGP (Pen at 4; 3-PyridylAla at 8; disulfide; C-terminal amide) [Peptide No. 59] were, in that order, 19 µM and 60 µM.

In test [3], RFXTGXFGGLYPC (Pen at 3; 3PyridylAla at 6; Sar at 9; NMeLeu at 10; disulfide; C-terminal amide) [Peptide No. 250] registered an IC50 of 1.2 µM. In addition, the results for the Kd in test [4] and in test [5] were 260 nM and 64 nM, respectively. As for QRFXTGHFGGLYPCNGP (Pen at 4; Sar at 9; disulfide; C-terminal amide) [Peptide No. 111], binding in [6] was put at a Kd of 2 µM. Take QRFXTGHFGGLYPCNGP (Pen at 4; Sar at 6; disulfide; C-terminal amide) [Peptide No. 108]: in test [7], the IC50 is above 125 µM. In turn, QRF[dC]TGHFGGLYPCNGP-NH2 (disulfide 4-14 (inferred)) [Peptide No. 29] displayed a half-maximal inhibitory concentration (IC50) in test [8] above 125 µM.

B1: Peptide No. 264 (peptide)
peptide: RFXTGXFGGLYPC
modifications: Pen at 3; 4-PiperidylAla at 6; Sar at 9; NMeLeu at 10; disulfide; C-terminal amide
Molecule B1 displayed an IC50 in [3] of 85 µM. In addition, the Kd in test [4] came out at 6400 nM; in [5], 5200 nM.

As for QRFXTGHFGGLXPCNGP (Pen at 4; pentafluoroPhe at 12; disulfide; C-terminal amide) [Peptide No. 65], the Kd in test [9] was found to be 72 µM. For QRFXTGHFGGLYPXNGP (hC at 4; Pen at 14; disulfide; C-terminal amide) [Peptide No. 70], in [10], the Kd is 2100 nM.

B2: Peptide No. 259 (peptide)
peptide: RFXTGXFGGLYPC
modifications: not fully specified; Pen at 3; His(Me) (mono-methylated histidine) at 6; disulfide; C-terminal amide
B2: the IC50 in [3] was determined as 2.9 µM. Besides, the equilibrium dissociation constant (Kd) in [4] turned out to be 380 nM; in test [5], 140 nM. QRFXTGHFGGLYPCNGP (Pen at 4; Sar at 10; disulfide; C-terminal amide) [Peptide No. 112]: in [7], the IC50 is 0.9 µM. For the molecule QRFXTGHFGGLYPCNGP (Pen at 4; NMeLeu at 11; disulfide; C-terminal amide) [Peptide No. 113], binding in test [6] was characterised by a dissociation constant (Kd) of 0.086 µM. For the same molecule, the half-inhibitory concentration (IC50) in [7] came out at 1.6 µM. Consider QRFXTGHFGGLYPCNGP (Pen at 4; NMeTyr at 12; disulfide; C-terminal amide) [Peptide No. 114], for which, in test [6], binding was put at a Kd of 92 µM. The molecule further came in with an IC50 in [7] above 125 µM. QRFXTGHXGGLYPCNGP (Pen at 4; 4-amino-Phe at 8; disulfide; C-terminal amide) [Peptide No. 55] registered a Kd in test [1] of 1 µM. Same read-out and setting: the value for QRFXTGHXGGLYPCNGP (Pen at 4; PheNHAc at 8; disulfide; C-terminal amide) [Peptide No. 94] was 270 µM; that for QRFXTGHXGGLYPCNGP (Pen at 4; 4-MePhe at 8; disulfide; C-terminal amide) [Peptide No. 90] was 0.2 µM.

B3: Peptide No. 251 (peptide)
peptide: RFXTGXFGGLYPC
modifications: not fully specified; Pen at 3; ThienylAla at 6; Sar at 9; NMeLeu at 10; disulfide; C-terminal amide
Consider B3, for which the IC50 in test [3] stood at 45 µM. The results for the dissociation constant Kd in test [4] and in test [5] were 3000 nM and 2000 nM, respectively. RFXTGXFGGLYPC (Pen at 3; 4GuanylPhe at 6; Sar at 9; NMeLeu at 10; disulfide; C-terminal amide) [Peptide No. 257]: the Kd is 73 nM in [4] and 74 nM in test [5].

With QRFXTGHXGGLYPCNGP (Pen at 4; 4-methoxy-Phe at 8; disulfide; C-terminal amide) [Peptide No. 56], the dissociation constant (Kd) in [1] was found to be 18 µM. In test [2], the IC50 amounted to 100 µM.

Molecule QRFXTGHFGPLYPCNGP (Pen at 4; D-Pro at 10; disulfide; C-terminal amide) [Peptide No. 40] showed a Kd in test [11] of 1.1 µM. In test [12], this molecule displayed an IC50 of 1.4 µM. On to QRFXTGHFGILYPCNGP (Pen at 4; D-Ile at 10; disulfide; C-terminal amide) [Peptide No. 43], for which binding in test [11] was put at a Kd of 41 µM. Further, the IC50 in test [12] turned out to be 18 µM. In test [9], QRFXTGHFGGLXPCNGP (Pen at 4; 2-nitro-Tyr at 12; disulfide; C-terminal amide) [Peptide No. 87] yielded a dissociation constant Kd of 290 µM.

On to QRFXTGHFGGLXPCNGP (Pen at 4; 4-nitro-Phe at 12; disulfide; C-terminal amide) [Peptide No. 68], for which the equilibrium dissociation constant (Kd) in [9] came out at 180 µM.

On to QRFXTGHXGGLYPCNGP (Pen at 4; 2-MePhe at 8; disulfide; C-terminal amide) [Peptide No. 88], for which the dissociation constant Kd in [1] turned out to be 0.2 µM. Besides, in test [2], the IC50 amounted to 1 µM. As to QRFXTGHXGGLYPCNGP (Pen at 4; 2-napthylalanine at 8; disulfide; C-terminal amide) [Peptide No. 62], in [1], binding was put at a Kd of 11 µM. In test [2], this molecule had an IC50 of 90 µM.

The molecule QRFXTGHFGGLYPXNGP (Pen at 4 and 14; disulfide; C-terminal amide) [Peptide No. 34] showed an IC50 in test [8] of 2 µM. For the same molecule, the dissociation constant (Kd) in test [10] amounted to 370 nM. On to QRFXTGHXGGLYPCNGP (Pen at 4; pentafluoro-Phe at 8; disulfide; C-terminal amide) [Peptide No. 57], for which the equilibrium dissociation constant (Kd) in [1] was determined as 70 µM.

B4: Peptide No. 268 (peptide)
peptide: RFXTGXFGGLYPC
modifications: Pen at 3; 4-PyridylAla at 6; Sar at 9; NMeLeu at 10; disulfide; C-terminal amide
For B4, the IC50 in test [3] is 1.3 µM. The Kd in test [4] came out at 280 nM; in [5], 67 nM. RFXTGKFGGLYPC (Pen at 3; Sar at 9; NMeLeu at 10; disulfide; C-terminal amide) [Peptide No. 255] came in with an IC50 in test [3] of 40 µM. The Kd came out at 1100 nM in [4] and 1300 nM in test [5]. For RFXTGRFGGLYPC (Pen at 3; Sar at 9; NMeLeu at 10; disulfide; C-terminal amide) [Peptide No. 256], in that order: 5.5 µM, 500 nM and 500 nM. Turning to QRFCTGHFGGLYPXNGP (hC (L-homocysteine) at 14; disulfide; C-terminal amide) [Peptide No. 27], the IC50 in test [8] is 21 µM. For the same molecule, in [10], binding was characterised by a dissociation constant (Kd) of 3900 nM.

Regarding QRFCTGHFGGLYPXNGP (Pen at 14; disulfide; C-terminal amide) [Peptide No. 33], the IC50 in test [8] is 18 µM.

In the case of RFXTGXFGGLYPC (Pen at 3; His(Me)2 (di-methylated histidine) at 6; disulfide; C-terminal amide) [Peptide No. 260], in test [3], the IC50 was found to be 4.4 µM. The Kd came to 460 nM in test [4] and 190 nM in test [5]. In the case of QRFXTGHFGGLYPXNGP (Pen at 4; hC at 14; disulfide; C-terminal amide) [Peptide No. 69], in [8], the IC50 was 2 µM.

As for QRFXTGHFGGLYPXNGP (hC at 4 and 14; disulfide; C-terminal amide) [Peptide No. 28], the IC50 in [8] is 20 µM. This molecule also displayed a Kd in [10] of 3800 nM. The like results for QRFXTGHFGPLYPXNGP (Pen at 4 and 14; D-Pro at 10; disulfide; C-terminal amide) [Peptide No. 295] were, in that order, 1.6 µM and 280 nM. The molecule QRFCTGHFGGLFPCNGP-NH2 (disulfide 4-14 (inferred)) [Peptide No. 26] displayed an equilibrium dissociation constant (Kd) in test [9] of 230 µM.

Take QRFCTGHFGGLAPCNGP-NH2 (disulfide 4-14 (inferred)) [SEQ ID NO:34]: the half-maximal inhibitory concentration (IC50) in test [13] is above 125 µM. In test [13], QRFCTGHFGALYPCNGP-NH2 (disulfide 4-14 (inferred)) [SEQ ID NO:32] gave an IC50 above 125 µM. In test [6], QRFC[NMeA]GHFGGLYPCNGP-NH2 (disulfide 4-14 (inferred)) [Peptide No. 196] displayed a Kd of 18 µM. This molecule also registered an IC50 in [7] of 169 µM. As for QRFCTGHAGGLYPCNGP-NH2 (disulfide 4-14 (inferred)) [SEQ ID NO:30], the IC50 in test [13] is above 125 µM.
